Earlier results, collected in publication PMC7484323 (Molecular pharmaceutics, 2020).

Test system: B16/F1 melanoma
Details: 2 h post-injection

hydrazinonicotinamide (HYNIC)-GGNle-CycMSHhex (sidechain bridge or staple) [99mTc(EDDA)-HYNIC-GGNle-CycMSHhex]
kidney (renal) uptake: 7.52 ± 0.96 %ID/g | liver uptake: 0.52 ± 0.05 %ID/g | tumor uptake (B16/F1 melanoma): 14.14 ± 4.90 %ID/g
